From patent publication US20090291083A1, “BARB4 TARGET, ANTIBODY DESIGNATED BARB4, BARB4 RELATED ANTIBODIES, AND METHODS OF MAKING AND USING SAME” (PATRYS LIMITED, priority 2008, published 2009) come the findings set out here.

What all share (type): binding, human
In assay [1] the test system is BXPC-3 cells transfected with TAF 15 siRNA. The assay is described as follows: FACS analysis after TAF 15 siRNA knockdown. The note with it: BARB4 300 μg/ml. The method, then:
Before transfection, 24-well plates were inoculated with 0.5×10^4 BXPC-3 cells in growth medium (RPMI 1640 supplemented with […] and 1% (V/V) glutamine). The cells were incubated at 37° C. and a 7% CO2 atmosphere over night to reach a confluence of 50 to 70% the following day. 60 minutes prior to transfection, the medium was carefully aspirated from the wells and 250 μl (300 μl for nontransfected cells) fresh growth medium was added. For each well 50 μl transfection solution was prepared. First […] serum-free OptiMEM® I+GlutaMAX™-I (1×) medium (Invitrogen, Karlsruhe) supplemented with 0.5 μl siLentFect™Lipid Reagent (Biorad, München) was mixed. Afterwards 25 μl serum-free medium containing siGENOME SMARTpool siRNA (Dharmacon, Lafayette, USA) was prepared to achieve a final concentration of 100 nM siRNA. Both solutions were prepared separately. After five minutes they were added together and mixed by pipetting. […]
FACS assays were done with transfected cells. […] At least 200 μl FACS buffer was added and cells were analyzed by flow cytometry (FACScan; Becton Dickinson, San Jose, Calif.) using WinMDI software. […]
Mouse anti-human CD55 antibody (DAF; 1:1000; Acris, Hiddenhausen) was used to control protein expression of other cell surface membrane proteins. […] The cells were analyzed by flow cytometry (FACScan, Becton Dickinson, San Jose) and evaluated with WinMDI software.
A general note: A flow cytometer gives signals particle by particle.

Assay [2] concerns Malignant Tissues: Esophagus. Kind of assay: Immunohistochemistry (IHC) with biotinylated BARB4 on malignant tissue. The note with it: positive/negative. As for the experimental part: (§1) Immunohistochemistry with human IgG on human tissue naturally results in high background staining. Accordingly, BARB4 was labeled with biotin to reduce background.
(§2) BARB4 antibody and an unrelated commercial IgG control (Chrompure IgG, Dianova) where labelled with “EZ-Link Maleimide-PEO Solid Phase Biotinylation Kit” from Pierce (Cat-# 21930) and Immunohistochemistry was initiated on different tumor tissue. Parrafin embedded tissue was first deparaffinized by treatment with Xylene 1 for 5 min, Xylene 2 for 5 min, followed by 100% Ethanol 1 for 5 min, 100% Ethanol 2 for 5 min, 70 ml Methanol+500 μl H2O2 for 7 min, 90% Ethanol 1 for 3 min, 90% Ethanol 2 for 3 min, 80% Ethanol 1 for 3 min, 80% Ethanol 2 for 3 min, 70% Ethanol 1 for 3 min, 70% Ethanol 2 for 3 min, and then washed three times with distilled H2O. (1 and 2 mean that the tissues were treated 2 times with the same alcohol, one after the another, in two different tanks.) Tissue was then heated in Citric acid, pH 5,5 in a water-bath at 99.9° C. for 20 min, placed in Tris/NaCl (Tris, 0.6 g/l and NaCl 8.1 g/l, pH 7.4) for 5 min, block with 0.5% BSA in PBS for 60 min, and then washed three times with Tris/NaCl (Tris, 0.6 g/l and NaCl 8.1 g/l, pH 7.4). Primary antibody (150 μl per microscope slide) was added, or a negative control biotinylated isotype matched control human antibody (Chrompure IgG, Dianova, Germany) or a positive controlanti-cytokeratin antibody, and incubated for 30 min in a humidified chamber at 37° C. Tissue was washed three times with Tris/NaCl (Tris, 0.6 g/l and NaCl 8.1 g/l, pH 7.4). Secondary antibody: (150 […]) was subsequently added and incubated for 30 min in a humidified chamber at room temperature (for biotinylated antibodies: NeurtrAvidin 1:100 in PBS), washed three times with Tris/NaCl (Tris, 0.6 g/l and NaCl 8.1 g/l, pH7.4), placed in PBS for 10 min. Tiusse was subsequently incubated with diaminobenzidine (0.05%)-hydrogen peroxide (0.02%) (150 μl per microscope slide) (Sigma, Taufkirchen, München, Germany) for 10 min, washed three times with H2O, washed once with distilled H2O, incubated with hematoxylin/eosin for 5 min, and placed under running tap water 10-15 min. Tissue was then washed again with distilled H2O, and the slides covered with Aquatex (Merck Bioscience).

The subject of assay [3] is Malignant Tissues: Pancreas. The description is as above. To be noted: positive/negative. The method, then:
as §1, §2

Assay [4] relates to Malignant Tissues: Stomach. Described as above. To be noted: positive/negative. As for the experimental part: as §1, §2
In assay [5] the test system is Malignant Tissues: Lung. Described as above. The note with it: positive/negative. As for the experimental part: as §1, §2
In assay [6] the test system is Malignant Tissues: Melanoma. The description is as above. The note with it: Metastases of malignant melanoma, positive/negative. The method, then:
as §1, §2

The test system of assay [7] is Malignant Tissues: Colon. Described as above. To be noted: positive/negative. As for the experimental part: as §1, §2
Assay [8] relates to Malignant Tissues: Prostrate. The description is as above. The note with it: Adeno, positive/negative. The method, then:
as §1, §2

For assay [9], the system named is Malignant Tissues: Breast. The assay is described as above. To be noted: positive/negative. As for the experimental part:
as §1, §2

B1: BARB4: human IgG antibody produced by hybridoma DSMZ Deposit No. DSM ACC2876; heavy chain SEQ ID NOs:1, 3, 5, 7, light chain SEQ ID NO:9 (antibody, V domains shown)
VH: QVQLVESGGGVVQPGRSLRLSCAASGFRFTTHGMHWVRQAPGKGLEWVAVISYNGRNKYYADYVNGRFTISRDDSRDTVFLQMNSLRPEDTAMYYCAKVRGDGYGDYGYFDYWGHGTLVSVSS
VL: QSALTQPRSVSGSPGQSVTISCTGTYNYVSWYQQHPGKAPKLMIFDVSRRSSGVPDRFSGSKSGNTASLTISGLQAEDEADYYCCSYGGTYLYVFGTGTTVTVLGQ
As for B1, the “FACS binding to cells treated with siRNA against human TAF15 mRNA” value in [1] (48 h after transfection) is listed as “clearly reduced binding”. Moreover, in assay [1] (after 48 h), the “FACS binding to untreated cells and cells treated with unrelated siRNA (negative control)” value is recorded as “binds”. Besides, the “Barb 4 +/−” value in [2] (Adeno (Barrett Carcinoma)) was 1/0; in [2] (Squamous cell), 1/0; in [3] (Adeno), 0/1; in assay [3] (Lymph Node Metastasis), 4/0; in assay [4] (Adeno (Cardio, intestinal)) it was 1/0; in assay [4] (Adeno (intestinal)), 2/0. Moreover, the “Barb 4 +/−” value in assay [5] (Carcinoid (neuron-endocrine)) was 1/0; in assay [5] (Lymph Node Metastasis), 1/0; in assay [5] (Squamous cell), 2/0; in [6] it was 5/0; in [7] (Adeno), 1/0; in [7] (Liver Metastasis), 2/0. Besides, the “Barb 4 +/−” value in [8] is given as 1/0; in assay [9] (Invasive ductal), 2/0; in [9] (Lung Metastasis) it was 1/0; in [9] (Lymph Node Metastasis) it was 1/0.
